Assays:
in vivo = assay: in vivo; design: species or system C57BL/6 mice; conditions: C57BL/6, mouse, iv, total radioactivity
Description: At 9 ± 1 days post tumor implantation, at an average tumor bulk of approximately 120 mm^3, the tumor-naive and the B16F10 tumor-bearing mice were intravenously (iv.) injected with 9.36 ± 0.67 MBq of [^68Ga]Ga-DOTA-NAPamide or [^68Ga]Ga-DOTA-IPB-NAPamide via the lateral tail vein. After a 90-min-long tracer distribution time, the study mice were subjected to whole-body static PET acquisition (10 min scans at each bed position) under isoflurane-induced anesthesia (AbbVie, Budapest, Hungary; OGYI-T-1414/01) applying a preclinical MiniPET-II small animal PET device (Division of Nuclear Medicine and Translational Imaging, Department of Medical Imaging, Faculty of Medicine, University of Debrecen).
Three-dimensional ordered-subsets expectation-maximization algorithm (3D OSEM) was used for PET image reconstruction. Three-dimensional ellipsoidal volume of interests (VOI) were manually placed around the border of the organ/tissue activity to calculate their radiotracer concentration. The radiopharmaceutical accumulation was presented as standardized uptake values (SUVs). The following formula was applied for the determination of the SUV parameter:SUV (g/mL) = [VOI activity (Bq/mL)]/[administered activity (Bq)/animal weight (g)]

[1] = Ex vivo organ distribution in B16F10 tumor-bearing mice; design: species or system C57BL/6 mice; conditions: mouse, iv
Description: (§1) To accomplish post-imaging organ distribution investigations, 9.36 ± 0.67, 6.34 ± 1.07 and 2.39 ± 0.19 MBq of ^68Ga-labeled-^177Lu-labeled-and ^205/206Bi-labeled […]-based probes were iv. Injected, respectively, into the lateral tail vein of both the tumor-naive and the melanoma tumor-carrying experimental mice. Ninety-minutes ([^68Ga]Ga-DOTA-[…]-DOTA-[…]; [^205/206Bi]Bi-DOTA-[…]; [^205/206Bi]Bi-DOTA-[…]) and 24 h ([^177Lu]Lu-DOTA-[…]; [^177Lu]Lu-DOTA-[…]) post tracer administration, mice were sacrificed under Forane-induced inhalation anesthesia. Then, the tumor, the blood, and selected organs and tissues were removed, weighed wet and measured for radioactivity applying a calibrated gamma counter (Perkin-Elmer Packard 406 Cobra, Waltham, MA, USA). The counts per minute (CPM) figures for each sample were converted to percent of administered dose per gram of tissue (%ID/g).

[2] = system: B16F10 tumor-bearing mice; assay: as above; design: species or system C57BL/6 mice; conditions: mouse, iv
Description: as §1

[3] = format: physicochemical
Description: After the dilution of the purified radiotracers ([^68Ga]Ga-DOTA-[…]-DOTA-[…], [^205/206Bi]Bi-DOTA-[…], [^205/206Bi]Bi-DOTA-[…], [^177Lu]Lu-DOTA-[…], [^177Lu]Lu-DOTA-[…]) (50 μL, 1-3 MBq) with 450 μL water, 500 μL n-octanol was added to each sample. […] The activity of the samples from n-octanol phase (20 μL) and aqueous phase (20 μL) was analyzed with gamma counter. The procedure was performed in triplicate. For [^68Ga]Ga-DOTA-[…]-DOTA-[…], [^205/206Bi]Bi-DOTA-[…], [^205/206Bi]Bi-DOTA-[…], [^177Lu]Lu-DOTA-[…], and for [^177Lu]Lu-DOTA-[…] the logP values were -3.46, -2.12, -3.65, -2.32, -2.6, 1.26, respectively.

For `CCCC[C@H](NC(C)=O)C(=O)N[C@@H](CC(=O)O)C(=O)N[C@@H](Cc1c[nH]cn1)C(=O)N[C@H](Cc1ccccc1)C(=O)N[C@@H](CCCNC(=N)N)C(=O)N[C@@H](Cc1c[nH]c2ccccc12)C(=O)NCC(=O)N[C@@H](CCCCNC(=O)[C@H](CCCCNC(=O)CCCc1ccc(I)cc1)NC(=O)CN1CCN(CC(=O)O)CCN(CC(=O)O)CCN(CC(=O)O)CC1)C(N)=O` [[^68Ga]Ga-DOTA-IPB-NAPamide, metal not drawn], the SUV at 1.5 h (in vivo) was 1.31 ± 0.24 SUV, the tissue uptake at 1.5 h ([1]; B16-F10 tumor uptake) was 5.06 ± 1.08 %ID/g and the tissue uptake at 1.5 h ([1]; blood uptake) was 14.2 ± 1.87 %ID/g. It also gave a tissue uptake at 1.5 h ([1]; brain uptake) of 0.28 ± 0.02 %ID/g, a tissue uptake at 1.5 h ([1]; fat uptake) of 2.02 ± 0.65 %ID/g and a tissue uptake at 1.5 h ([1]; heart uptake) of 5.14 ± 0.72 %ID/g. For the same compound, the tissue uptake at 1.5 h ([1]; kidney uptake) was 4.57 ± 0.88 %ID/g, the tissue uptake at 1.5 h ([1]; large intestine uptake) was 0.92 ± 1.25 %ID/g and the tissue uptake at 1.5 h ([1]; liver uptake) was 2.64 ± 0.11 %ID/g. It also gave a tissue uptake at 1.5 h ([1]; lung uptake) of 6.32 ± 0.91 %ID/g, a tissue uptake at 1.5 h ([1]; muscle uptake) of 1.01 ± 0.18 %ID/g and a tissue uptake at 1.5 h ([1]; small intestine uptake) of 2.41 ± 0.03 %ID/g. For the same compound, the tissue uptake at 1.5 h ([1]; spleen uptake) was 2.37 ± 0.25 %ID/g and the tissue uptake at 1.5 h ([1]; stomach uptake) was 2.97 ± 1.38 %ID/g.
`CCCC[C@H](NC(C)=O)C(=O)N[C@@H](CC(=O)O)C(=O)N[C@@H](Cc1c[nH]cn1)C(=O)N[C@H](Cc1ccccc1)C(=O)N[C@@H](CCCNC(=N)N)C(=O)N[C@@H](Cc1c[nH]c2ccccc12)C(=O)NCC(=O)N[C@@H](CCCCNC(=O)CN1CCN(CC(=O)O)CCN(CC(=O)O)CCN(CC(=O)O)CC1)C(N)=O` [[^177Lu]Lu-DOTA-NAPamide] [metal not drawn, reference compound] gave a brain uptake ([2]; 24 h) of 0.00 ± 0.00 %ID/g, a muscle uptake ([2]; 24 h) of 0.00 ± 0.00 %ID/g and a logP [3] of −2.6.
`CCCC[C@H](NC(C)=O)C(=O)N[C@@H](CC(=O)O)C(=O)N[C@@H](Cc1c[nH]cn1)C(=O)N[C@H](Cc1ccccc1)C(=O)N[C@@H](CCCNC(=N)N)C(=O)N[C@@H](Cc1c[nH]c2ccccc12)C(=O)NCC(=O)N[C@@H](CCCCNC(=O)CN1CCN(CC(=O)O)CCN(CC(=O)O)CCN(CC(=O)O)CC1)C(N)=O` [[^68Ga]Ga-DOTA-NAPamide, metal not drawn, reference compound] showed an SUV at 1.5 h (in vivo) of 0.43 ± 0.09 SUV, a tissue uptake at 1.5 h ([1]; blood uptake) of 0.35 ± 0.1 %ID/g and a tissue uptake at 1.5 h ([1]; brain uptake) of 0.03 ± 0.01 %ID/g. It also gave a tissue uptake at 1.5 h ([1]; heart uptake) of 0.1 ± 0.06 %ID/g, a tissue uptake at 1.5 h ([1]; large intestine uptake) of 0.3 ± 0.01 %ID/g and a tissue uptake at 1.5 h ([1]; lung uptake) of 0.33 ± 0.06 %ID/g. For the same compound, the tissue uptake at 1.5 h ([1]; muscle uptake) was 0.08 ± 0.02 %ID/g, the tissue uptake at 1.5 h ([1]; small intestine uptake) was 0.35 ± 0.13 %ID/g and the tissue uptake at 1.5 h ([1]; stomach uptake) was 0.24 ± 0.09 %ID/g.
For `CCCC[C@H](NC(C)=O)C(=O)N[C@@H](CC(=O)O)C(=O)N[C@@H](Cc1c[nH]cn1)C(=O)N[C@H](Cc1ccccc1)C(=O)N[C@@H](CCCNC(=N)N)C(=O)N[C@@H](Cc1c[nH]c2ccccc12)C(=O)NCC(=O)N[C@@H](CCCCNC(=O)[C@H](CCCCNC(=O)CCCc1ccc(I)cc1)NC(=O)CN1CCN(CC(=O)O)CCN(CC(=O)O)CCN(CC(=O)O)CC1)C(N)=O` [[^177Lu]Lu-DOTA-IPB-NAPamide, metal not drawn], the tissue uptake at 24 h ([1]; B16-F10 tumor uptake) was 4.16 ± 1.86 %ID/g, the tissue uptake at 24 h ([1]; blood uptake) was 3.71 ± 0.73 %ID/g and the tissue uptake at 24 h ([1]; brain uptake) was 0.08 ± 0.01 %ID/g. It also gave a tissue uptake at 24 h ([1]; fat uptake) of 0.67 ± 0.34 %ID/g, a tissue uptake at 24 h ([1]; heart uptake) of 1.3 ± 0.12 %ID/g and a tissue uptake at 24 h ([1]; kidney uptake) of 5.58 ± 1.59 %ID/g. The tissue uptake at 24 h ([1]; large intestine uptake) was 0.61 ± 0.11 %ID/g, the tissue uptake at 24 h ([1]; liver uptake) was 1.97 ± 0.13 %ID/g and the tissue uptake at 24 h ([1]; lung uptake) was 2.5 ± 0.24 %ID/g. It also gave a tissue uptake at 24 h ([1]; muscle uptake) of 0.33 ± 0.07 %ID/g, a tissue uptake at 24 h ([1]; small intestine uptake) of 0.6 ± 0.03 %ID/g and a tissue uptake at 24 h ([1]; spleen uptake) of 1.32 ± 0.2 %ID/g. The tissue uptake at 24 h ([1]; stomach uptake) was 0.69 ± 0.11 %ID/g.
With `CCCC[C@H](NC(C)=O)C(=O)N[C@@H](CC(=O)O)C(=O)N[C@@H](Cc1c[nH]cn1)C(=O)N[C@H](Cc1ccccc1)C(=O)N[C@@H](CCCNC(=N)N)C(=O)N[C@@H](Cc1c[nH]c2ccccc12)C(=O)NCC(=O)N[C@@H](CCCCNC(=O)CN1CCN(CC(=O)O)CCN(CC(=O)O)CCN(CC(=O)O)CC1)C(N)=O` [[^68Ga]Ga-DOTA-NAPamide] [metal not drawn, reference compound] the B16-F10 tumor uptake ([2]; 1.5 h) was 1.18 ± 0.27 %ID/g, the fat uptake ([2]; 1.5 h) was 0.16 ± 0.03 %ID/g and the kidney uptake ([2]; 1.5 h) was 3.07 ± 0.35 %ID/g. It also gave a liver uptake ([2]; 1.5 h) of 0.31 ± 0.08 %ID/g, a spleen uptake ([2]; 1.5 h) of 0.15 ± 0.02 %ID/g and a logP [3] of −3.46.
Work on `CCCC[C@H](NC(C)=O)C(=O)N[C@@H](CC(=O)O)C(=O)N[C@@H](Cc1c[nH]cn1)C(=O)N[C@H](Cc1ccccc1)C(=O)N[C@@H](CCCNC(=N)N)C(=O)N[C@@H](Cc1c[nH]c2ccccc12)C(=O)NCC(=O)N[C@@H](CCCCNC(=O)CN1CCN(CC(=O)O)CCN(CC(=O)O)CCN(CC(=O)O)CC1)C(N)=O` [[^177Lu]Lu-DOTA-NAPamide, metal not drawn, reference compound] yielded a tissue uptake at 24 h ([1]; B16-F10 tumor uptake) of 0.16 ± 0.15 %ID/g, a tissue uptake at 24 h ([1]; fat uptake) of 0.01 ± 0.01 %ID/g and a tissue uptake at 24 h ([1]; heart uptake) of 0.01 %ID/g. The tissue uptake at 24 h ([1]; kidney uptake) was 1.85 ± 0.79 %ID/g, the tissue uptake at 24 h ([1]; liver uptake) was 0.24 ± 0.13 %ID/g and the tissue uptake at 24 h ([1]; lung uptake) was 0.04 ± 0.03 %ID/g. The tissue uptake at 24 h ([1]; small intestine uptake) was 0.01 ± 0.01 %ID/g and the tissue uptake at 24 h ([1]; spleen uptake) was 0.07 ± 0.04 %ID/g.
With `CCCC[C@H](NC(C)=O)C(=O)N[C@@H](CC(=O)O)C(=O)N[C@@H](Cc1c[nH]cn1)C(=O)N[C@H](Cc1ccccc1)C(=O)N[C@@H](CCCNC(=N)N)C(=O)N[C@@H](Cc1c[nH]c2ccccc12)C(=O)NCC(=O)N[C@@H](CCCCNC(=O)[C@H](CCCCNC(=O)CCCc1ccc(I)cc1)NC(=O)CN1CCN(CC(=O)O)CCN(CC(=O)O)CCN(CC(=O)O)CC1)C(N)=O` [[^68Ga]Ga-DOTA-IPB-NAPamide] [metal not drawn] the logP [3] was −2.12.
